According to the DeepSol protein solubility set:

assay: soluble on expression in E. coli; label from the status in PepcDB or PDB records

| Sequence | soluble on expression in E. coli |
| --- | --- |
| SNAMKQAIGFIDSGVGGLTVVREVLKQLPHEQVYYLGDTARCPYGPRDKEEVAKFTWEMTNFLVDRGIKMLVIACNTATAAALYDIREKLDIPVIGVIQPGSRAALKATRNNKIGVLGTLGTVESMAYPTALKGLNRRVEVDSLACPKFVSVVESGEYKSAIAKKVVAESLLPLKSTKIDTVILGCTHYPLLKPIIENFMGDGVAVINSGEETASEVSALLDYHNLLDATDEEIEHRFFTTGSTQIFKDIAKDWLNMPDMTVEHIKLGK | soluble |
| MGSDKIHHHHHHMGEAIEVAEGALWMRLPLPMKLDHVNVYAFDEGDSWTVVDTGMSSNKTRRIWEQLMAGPLGGKPVRRVVVTHHHPDHIGNAGWFQSEHGAELVTTRTAWLFARMLTLDVQESWPEETLAYYRSAGMDPEVYDTRKADRPFNFADTVYPMPLGFTRVQQGDVFRMGGRDWDIHMGNGHAPEHATLWSRDDNLVLTGDQVLSSISPNIGVYATEPEADPLAEWLEACERLAALARPEHLALGGHKLPFTRLPLRMRQLIDNHHGALERLMEFLETPKSAAECFPTLFKRTIGPGEYGLALVEAVAHVNHLYRTGQVTRTRRSDEAWVYQRR | not soluble |
| MFPEILNNEKLRLENIKKIYESSKSGYESAKQLYEQQVNNPEVSDEQKSENLEKLKESRGDLDNLQKKIVELQAKIENLSKLGGQQGNPFKKLF | not soluble |
| MGSDKIHHHHHHMKLRKQLAQQIVTSIKDVCQQDINFINTKGIIFASTNPKRVGEFHEIGLKVAQTGQMIEVTDQESYFGTQAGINIPFYYNCELLATIGISGNPNQVGKYALLAQKMTRLILKEHELDYLDFGRKNEASIVLHHLVEGRELDYYYLNQFLNQYHLSEKTDYRLLTFEINSQKQKLLLSQSEMSLLNFFDKLDTAIYTFNYPNQYWLLLSDHMFDYYYPNILSKFECEKGLYKVGIGQKSSLSLLKRSYETSILALKALKGQQKVNLVDDLDLELLLTSIDSNIKQYVLNKALVNLSENDKILLNSYFKHNLSLKECSQELFIHKNTVQYRLNKIYESTQLNPRNFKDATLLYLALKSEDINLHKL | not soluble |
| MSLTVRQLASLTRGAVRTLATDGAVAVLPIGAVEQHGDHLPLGTDFLLVEAVCDRAMQQLEDDRTTWVRVPTMTFGHSPHHLFAAAVSLQAGTLTDVLADVLDSLAQTGFRRIVIVNGHGGNDELVRLAVKAHSLHAEGTAAACSYWTLTAQTTAEAAATERPDRTPGHAGWFETSLMLAVHPELVADDRPFTPSDPPPLFNRSPAPGLTVERHGEWPRVGGTTDDAREASAETGRLLLGRRVAGLVAALQSLDRATATPPAASVPSTDRERGPQAEGHHHHHH | not soluble |
| MTHPLYIFDLDETLINGDCAMIWNEFLVDKGIVTTPDFLEEDKRLMTLYSRGLMDMEDYLIFAMSPLKNIPTDQVEILIEECVNERILPLLFPEAKILIHQLKADNVDMIVISASVSFLVKIVAKNIGIKHAIGIDLKEKNGCYTRHILGVPSYREGKVSRLTEWLNGGDKTYSALHFYTDSINDLPLCLYADHTYLVNPCEQLAVYSKKKNWPILAWGSQ | not soluble |
| MSHTAEIPMVPGSESPLELKPLKAVDPKAVYHRRAQRLLSLAKDSPLADYFELCRRVVAIQARLAAEADFGQLLAWGKDEAIPLSHLGSEADSYWQGLLQQLLSDLLPQVGEDLARVLRLLMQQSPEQLTSWGASLRQGHMSAVPARFSLFIWAAMGVYWSHWAPMVIKRIDQRKVAQQNLCPICGSHPVASVIVDQPRAGLRYLHCSLCESEWHYIRAHCTSCGQDKGTTLWSFDDTQAQVRIESCDECHGYTKMMFVEKSPLMDVVADDLATLMLDSELNAKGFGATTVNPLLLAHETEQ | not soluble |
| MATMSRRWNYFTPHYNDEGSIDVLDGKPPYIDLFDPLKQPLFQHLRSMHTEFSTTTADVNTTWEDASSTSSSNKGATIWFNEDAIDKSSRHEIGQSTVTHESEDDRFSFFNAVCTRLNSLQETKNSSETEEHAESPRKEKSSTPYGTDGFAPPPRSTQTNTLKVSNLPKRFESLYKKKRQQVATSDSSGFGSNASDFWSFERYGKSNQGTLERPNRLFTGTNNGFSTLQPKRRGSEAPKMTVELRYENDVPMVAKISANHAQSVTLRYFRHLFGLHYTDNCR | not soluble |
| MSLEQKQMEEKIMNLLTSAPDKTFALEDLEIEIALNNADNFKLMVKALVKLEDSGTIVRSRKNRYALPEKMDLVKGTFRAHERGFGFVLPEEKEMDDIFIPPNEVKDAMNGDLVFATITKRKGDNLAEGTIKKIVERKTTQIVGTYMEDLAGTPIVMPDDKRLFGEVEIDLEDGLKPVDGHKVIVELTEYATGHARARGVVKSIIGHRNDPGVDILSIIHKHGISIGFPEEVMEQVSKAPDLVDDSDIGNRRDLRDQMIITIDGADAKDLDDAVTVKQLPNGNWKLGVHIADVTHYVTEGSPLDIEAQERGTSVYLVDRVIPMLPHKLSNGICSLNPQVDRFTMSCEMEIDQEGHVVNHEIFESIIKTTERMTYTDVNDILVEKDEALREKYAPIVPMLEAMQNLAEILRRKREKRGAIDFDFKEARVVVDEDGHPEAVVMRERSAGEHLIEEFMLAANETVAEHFHWMDVPFIYRIHEDPKEDKLARFFEFITNFGLIVKGTANDIHPAALQQVLEEVKGKPEEMVVSTVMLRSMQQAKYDTVSAGHFGLSTDFYTHFTSPIRRYPDLIVHRLIREYLINGDVRPETLEKRAEELPEIAEHSSKMERRAVEAERETDELKKTEFMVDKVGERFIGIISSVTNFGLFIELPTTIEGLVHVSAMKGDYFKFHQNQLAMIGERTGQIYRIGDEVEVEVTKVDVDAREIDFALRSEGKPGPVSDKQKRQREKPIDKTRNFKSSSKNNRNKRRTGKSEDVKPKTERKDDEWYTKPKKKKKKKPFYQGVAKESPKKKKRREGHHHHHH | soluble |
| GHHHHHHHHHHSSGHISGDAMEDKQERANYEKLQQKFQMLMSKHQAHVRPQFESLEKINKDIVGWIKLSGTSLNYPVLQGKTNHDYLNLDFEREHRRKGSIFMDFRNELKNLNHNTILYGHHVGDNTMFDVLEDYLKQSFYEKHKIIEFDNKYGKYQLQVFSAYKTTTKDNYIRTDFENDQDYQQFLDETKRKSVINSDVNVTVKDRIMTLSTCEDAYSETTKRIVVVAKIIKVS | soluble |
| MSLVWLAELPDEILENLYPGEDVLYSVKKKLYTELKPKYLIVTDRRIIYLDQKILGRYDLIDIPYEKLEFVHFKKGKIGAKFIIRNEEGEEIVLTWMEKDEAEKAIEAIRDAINAIAVEPVSIQKRKGILGFELELSKPKEFITRTYPQAVAKAAPKEDPIERIRKLKELYESGVISREEFEEKKRKLLDQIEGHHHHHH | soluble |
| MTIKLINIGFGNIISANRMISIVSPESAPIKRMIQDARDRGMLIDATYGRRTRAVVVMDSDHIILSAVQPETVAHRLSVKEEIMDEGQG | not soluble |
| MIGFLSDRQGFEKQYHDIDLSSFGIREGISEIIASTGFEHPNAAPIGIVMKGERPFVRLFKGSHTWENVLKEKCLASNVVYDPILFVRSTFSDLVPSEFEYVDAGEFKFPVLKEAIAWVVFECINLRNTDQSLVADLVPLNAGFNERNIKELPVPNRGFNAVLEATVHATRYQLTGEEKYLELIRHYESLASKCGGDAEKKAMKLIYEALGLLEHHHHHH | not soluble |
| MGSDKIHHHHHHMAIITRIEVQKRNNERYNIFIHQNGQDVYAFSVDEQVLIKQGLRKGLDIDAEQMKQILYEDEVQKTFNLALHYLSYRMRSVHEVRTYLKKKDREEPIIEHVLHRLTEQRLLDDHAFAEAFIQTKRATTSKGPLKLKQELAEKGVSEKTIEGALTTFSYEEQVEQVKAWLEKQKGRTFKGSSLAWKQKLSRQLLAKGYTSPVIEEAFADVPIKQEEEEEWEALKAFGEKAMRKYAGKKTGWELQQKVKQALYRKGFSLEMIERYLND | not soluble |
| MGSDKIHHHHHHMKFFSAPSPATRPPMRNRLPPLNPLRAFEAAARCGTVSAAADELHVTASAVSHQIRILESTLGVALFVRSKARVKLTPEGEALLEPVGAAFDMIANATVRLDSPAAAGDLVVSTPLSLTSRWLARHIGDFLERYPGIHLKVIPSNDDRETYSPDVDVCIRYGEGNWRNRRVELLAHPALFPVVSPALMNGPDAIRKVQDLAGRTLFCEHAGSWMRWLAEANADKLPGIRILEIGNAHIGVEAAVHGQGVALGDSLSVRDDLLDGTLVRPFSAAVPSRHAYYLVTRHELADSPLVTAFTTWLRACLA | not soluble |
| MHHHHHHSSGVDLGTENLYFQSMGLSRVRAVFFDLDNTLIDTAGASRRGMLEVIKLLQSKYHYKEEAEIICDKVQVKLSKECFHPYNTCITDLRTSHWEEAIQETKGGAANRKLAEECYFLWKSTRLQHMTLAEDVKAMLTELRKEVRLLLLTNGDRQTQREKIEACACQSYFDAVVVGGEQREEKPAPSIFYYCCNLLGVQPGDCVMVGDTLETDIQGGLNAGLKATVWINKNGIVPLKSSPVPHYMVSSVLELPALLQSIDCKVSMST | soluble |
| MITVNTLQKMKAAGEKIAMLTAYESSFAALMDDAGVDVLLVGDSLGMAVQGRQSTLPVSLRDMCYHTECVARGAKNAMIVSDLPFGAYQQSKEQAFAAAAELMAAGAHMVKLEGGVWMAETTEFLQMRGIPVCAHIGLTPQSVFAFGGYKVQGRGGKAQALLNDAKAHDDAGAAVVLMECVPAELAKKVTESVSCPTIGIGAGVDCDGQVLVMHDMLGIFPGKTAKFVKNFMQGQSSIQAAVRAYVAEVKAKTFPAAEHIFAD | not soluble |
| SAMRQTPLTCSGHTRPVVDLAFSGITPYGYFLISACKDGKPMLRQGDTGDWIGTFLGHKGAVWGATLNTEATKAATAAADFTAKVWDAVTGDEVLTLAHKHIVKSVNFTQDSNYLLTGGNDKVLRIYDLSKPEAEPQEIAGHTSAIKKALWCNNDQQILSAADDKTIRLWDKNTNEAVKTLSFDASVSSMEYIPDGETLVITYGRTIAFYNAHSLDLIKTVDAPASIHSASLHPDKDFFVAGGDDFKLYKYDYTTKEEMESYKGHFGPVHCVRFSPDGELYASGSEDGTLRLWQTAVGKTYGLWKCVLPEELSSENSEALYCPPAEIKA | soluble |
| MDIRKEFEHLQYFFDSYYNQTFYNAQLEEQFLRFLADEPEWVVRALKLEVEKLERIHHRRDTETWAKIEELVHENSMRYFSFEDGKTFIKVASLLLKDID | not soluble |
| MRGSHHHHHHGSMGKGITGFDPSLYSYLQSISADDSFYLAQLRRETAHLPGAPMQISPEQAQFLGLLISLTGAKQVLEIGVFRGYSALAMALQLPPDGQIIACDQDPNATAIAKKYWQKAGVAEKISLRLGPALATLEQLTQGKPLPEFDLIFIDADKRNYPRYYEIGLNLLRRGGLMVIDNVLWHGKVTEVDPQEAQTQVLQQFNRDLAQDERVRISVIPLGDGMTLALKK | soluble |
| MGSDKIHHHHHHMSEATLLSYTKKLLASPPQLSSTDLHDALLVILSLLQKCDTNSDESLSIYTKVSSFLTALRVTKLDHKAEYIAEAAKAVLRHSDLVDLPLPKKDELHPEDGPVILDIVGTGGDGQNTFNVSTSAAIVASGIQGLKICKHGGKASTSNSGAGDLIGTLGCDMFKVNSSTVPKLWPDNTFMFLLAPFFHHGMGHVSKIRKFLGIPTVFNVLGPLLHPVSHVNKRILGVYSKELAPEYAKAAALVYPGSETFIVWGHVGLDEVSPIGKTTVWHIDPTSSELKLKTFQLEPSMFGLEEHELSKCASYGPKENARILKEEVLSGKYHLGDNNPIYDYILMNTAVLYCLSQGHQNWKEGIIKAEESIHSGNALRSLEHFIDSVSSL | not soluble |
| MQTKNKQGVLLVNLGTPDEPTAPAVKRFLSQFLHDHRVVDMTRWLWCPILHGVILPIRSPKVAKLYESVWMEEGSPLMVYSKRQAKKLAQHLDMPVELGMTYGNPSLQSGFEALIAQGVEEVIVLPLYPQYSGTTTAAVSDGITKAFKQLPVMPAFSFIRDYHDHPMYIEALAHSVRQYWEEHGKGDYLLCSYHGIPKRYADNGDIYPQHCEATTRLLGEALGLSSDQIGMAYQSRFGREEWLQPYTDKTLETITSKGVKKIDIMTPAFSSDCLETLEEIAGENKEIFMEAGGEQFHYIPCLNDDDMHIDMMAELVRSKL | not soluble |
